Patent CN115521375A (INST PASTEUR SHANGHAI CAS, dated 2022)

Experiments:
[1] = molecular target: T1, SARS-CoV-2原型株RBD蛋白 (SARS-CoV-2, UniProt P0DTC2 320-550); test: BLI, prototype RBD on the sensor, antibody in solution
[2] = molecular target: SARS-CoV-2原型株(Wt)假病毒的S蛋白 (SARS-CoV-2, UniProt P0DTC2 14-1273); test: cell-based or functional assay
[3] = molecular target: T2, SARS-CoV-2原型株NTD蛋白 (SARS-CoV-2, UniProt P0DTC2 16-294); test: ELISA, coated antigen
T2 construct: range 16-294

[4] = molecular target: T1, SARS-CoV-2原型株RBD蛋白; test: ELISA, coated antigen

Binder	Kd [1]	半数抑制浓度(IC50), 假病毒中和试验 [2]	中和IC50, 假病毒中和试验 [2]	binding result [3]	binding result [4]
单抗5G2 (antibody, also called 抗体5G2) heavy: EVLLQQSGPELVKPGASVKIPCKASGYTFTDYNMDWVKQSHGKSLEWIGDINPNSGFIIYNQKFKGKASLTVDKSSSTAYMELRSLTSEDTAVYYCAREGYGNNFDYWGQGTTLSVSSAKTTPPSVYPLAPGCGDTTGSSVTLGCLVKGYFPESVTVTWNSGSLSSSVHTFPALLQSGLYTMSSSVTVPSSTWPSQTVTCSVAHPASSTTVDKKLEPSGPISTINPCPPCKECHKCPAPNLEGGPSVFIFPPNIKDVLMISLTPKVTCVVVDVSEDDPDVQISWFVNNVEVHTAQTQTHREDYNSTIRVVSTLPIQHQDWMSGKEFKCKVNNKDLPSPIERTISKIKGLVRAPQVYILPPPAEQLSRKDVSLTCLVVGFNPGDISVEWTSNGHTEENYKDTAPVLDSDGSYFIYSKLNMKTSKWEKTDSFSCNVRHEGLKNYYLKKTISRSPGK light: DILLTQSPTILSVSPGERVSFSCRASQSIGTSIHWYQQRTKGSPRLLIKYASESISGIPSRFSGSGSGTDFTLSINSVESEDIGDYYCQQSYSWPTTFGAGTKLELK	< 1 pM	0.293 µg/mL			
单抗3H3 (antibody, V domains shown, also called 抗体3H3) VH: QVQLQQPGAELVRPGASVKLSCKASGYSFTRFWMNWVKQRPGQGLEWIGMIHPSDSETRLNQKFKDKATLTVDKSSTTAYMQLSSPTSEDSAVYYCARKDYDYDAWFAYWGQGTLVTVSA VL: DIVLTQSPASLAVSLGQRATISCRASKSVSASVYSYMHWYQQKPGQPPKLLIYLASSLESGVPARFSGSGSGTDFTLNIHPVEEEDAATYYCHHSRELPPAFGGGTKLEIKR			0.083 µg/mL	no binding	no binding
